Experimental data published in paper PMC7617353, “Molecular basis of FIGNL1 in dissociating RAD51 from DNA and chromatin” (Science (New York, N.Y.), 2024).

B2: FIGNL1ΔN(E501Q) (domain or fragment, human, UniProt Q6PIW4 287-674, looked up)
chain: KEDSSLPTFKTAKEQLWVDQQKKYHQPQRASGSSYGGVKKSLGASRSRGILGKFVPPIPKQDGGEQNGGMQCKPYGAGPTEPAHPVDERLKNLEPKMIELIMNEIMDHGPPVNWEDIAGVEFAKATIKEIVVWPMLRPDIFTGLRGPPKGILLFGPPGTGKTLIGKCIASQSGATFFSISASSLTSKWVGEGEKMVRALFAVARCQQPAVIFIDQIDSLLSQRGDGEHESSRRIKTEFLVQLDGATTSSEDRILVVGATNRPQEIDEAARRRLVKRLYIPLPEASARKQIVINLMSKEQCCLSEEEIEQIVQQSDAFSGADMTQLCREASLGPIRSLQTADIATITPDQVRPIAYIDFENAFRTVRPSVSPKDLELYENWNKTFGCGK
notes: Six copies in the cryo-EM hexamer with ATP.Mg2+ and RAD51; also called E501Q mutant; source: E. coli BL21(DE3), purified as the wild type (HisTrap, StrepTrap, SEC)
B3: RAD51 (natural protein, human, UniProt Q06609 1-339, looked up)
chain: MAMQMQLEANADTSVEEESFGPQPISRLEQCGINANDVKKLEEAGFHTVEAVAYAPKKELINIKGISEAKADKILAEAAKLVPMGFTTATEFHQRRSEIIQITTGSKELDKLLQGGIETGSITEMFGEFRTGKTQICHTLAVTCQLPIDRGGGEGKAMYIDTEGTFRPERLLAVAERYGLSGSDVLDNVAYARAFNTDHQTQLLYQASAMMVESRYALLIVDSATALYRTDYSGRGELSARQMHLARFLRMLLRLADEFGVAVVITNQVVAQVDGAAMFAADPKKPIGGNIIAHASTTRLYLRKGRGETRICKIYDSPCLPEAEAMFAINADGVGDAKD
modifications: cysteine reactive RED-MALEIMIDE label (only in the MST with labelled RAD51)
notes: RAD51, expressed without tags; PDB 8R64 holds only residues 2-13 of it; also called RAD51 recombinase

Experiments:
RAD51 [1] = molecular target: T1, RAD51 (human, UniProt Q06609 1-339, cysteine reactive RED-MALEIMIDE label (only in the MST with labelled RAD51)); assay: MST
T1 chain: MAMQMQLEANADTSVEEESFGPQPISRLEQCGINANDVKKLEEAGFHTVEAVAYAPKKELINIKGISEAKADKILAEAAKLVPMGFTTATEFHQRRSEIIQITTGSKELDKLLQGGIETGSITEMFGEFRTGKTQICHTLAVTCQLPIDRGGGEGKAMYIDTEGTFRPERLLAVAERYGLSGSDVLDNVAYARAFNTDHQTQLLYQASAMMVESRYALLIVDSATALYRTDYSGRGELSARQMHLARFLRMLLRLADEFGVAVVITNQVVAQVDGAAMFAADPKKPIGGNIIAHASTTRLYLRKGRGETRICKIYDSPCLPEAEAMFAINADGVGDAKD

[2] = molecular target: T2, FIGNL1ΔN (human FIGNL1 residues 287-674) (human, UniProt Q6PIW4 287-674); assay: cryo-EM structure; 5µM FIGNL1ΔN with 1mM ATPγS and 5mM MgCl2, 15 minutes at 37°C in EM buffer; planar hexamer, 9.2Å map
T2 construct: Monomer by SEC-MALLS after purification; hexamer with ATPγS by cryo-EM; source: E. coli BL21(DE3), purified (HisTrap, StrepTrap, SEC Superdex 200 increase)
T2 sequence (looked up): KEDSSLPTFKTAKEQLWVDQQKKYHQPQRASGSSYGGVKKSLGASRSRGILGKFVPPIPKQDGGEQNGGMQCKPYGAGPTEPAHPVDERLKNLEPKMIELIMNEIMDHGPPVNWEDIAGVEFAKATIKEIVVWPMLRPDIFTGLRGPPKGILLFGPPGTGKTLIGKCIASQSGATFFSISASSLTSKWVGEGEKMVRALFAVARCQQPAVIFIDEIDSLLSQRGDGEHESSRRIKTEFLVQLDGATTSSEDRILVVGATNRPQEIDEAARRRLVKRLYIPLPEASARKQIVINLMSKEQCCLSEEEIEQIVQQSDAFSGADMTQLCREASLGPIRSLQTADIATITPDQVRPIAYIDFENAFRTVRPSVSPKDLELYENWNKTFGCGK

[3] = molecular target: the molecule itself; assay: cryo-EM structure; 10μM FIGNL1ΔN(E501Q) with 10μM RAD51, 1mM ATP, 5mM MgCl2, 20 mM Tris-HCl pH 8.0, 100 mM NaCl, 10 minutes at 37°C; whole complex ~8 Å, focused hexamer with RAD51 N-terminus 2.9 Å
RAD51 [4] = molecular target: B3; assay: as above; conditions: both partners purified
[5] = molecular target: T3, FIGNL1ΔN pore loop 1 mutant (K473E,W474A) (human, UniProt Q6PIW4 287-674, K473E | W474A); assay: MST; 100nM RED-MALEIMIDE labelled RAD51 with a serial dilution of FIGNL1ΔN (and mutants); 20mM Tris pH 8.0, 100mM NaCl, 1mM ATP, 5mM MgCl2, 0.05% TWEEN-20; 25°C; conditions: both partners purified
T3 construct: also called PL mutant; source: E. coli BL21(DE3), purified as the wild type (HisTrap, StrepTrap, SEC)
T3 sequence (looked up): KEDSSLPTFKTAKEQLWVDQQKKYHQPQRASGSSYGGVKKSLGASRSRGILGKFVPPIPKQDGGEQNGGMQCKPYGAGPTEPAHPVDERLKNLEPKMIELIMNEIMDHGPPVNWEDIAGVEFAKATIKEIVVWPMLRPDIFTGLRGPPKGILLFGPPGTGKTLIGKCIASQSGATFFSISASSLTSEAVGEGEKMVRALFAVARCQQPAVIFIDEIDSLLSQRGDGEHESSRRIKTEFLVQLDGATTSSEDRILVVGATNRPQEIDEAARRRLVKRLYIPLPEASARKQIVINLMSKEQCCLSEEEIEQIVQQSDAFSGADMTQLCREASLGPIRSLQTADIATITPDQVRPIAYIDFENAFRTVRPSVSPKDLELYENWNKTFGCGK

FIGNL1ΔN(E501Q) [6] = molecular target: B2; assay: as above; conditions: both partners purified
[7] = molecular target: T2, FIGNL1ΔN (human FIGNL1 residues 287-674); assay: as above; conditions: both partners purified
FIGNL1ΔN(E501Q) [8] = molecular target: T4, FIGNL1ΔN(E501Q) (human, UniProt Q6PIW4 287-674, E501Q); assay: MST
T4 sequence: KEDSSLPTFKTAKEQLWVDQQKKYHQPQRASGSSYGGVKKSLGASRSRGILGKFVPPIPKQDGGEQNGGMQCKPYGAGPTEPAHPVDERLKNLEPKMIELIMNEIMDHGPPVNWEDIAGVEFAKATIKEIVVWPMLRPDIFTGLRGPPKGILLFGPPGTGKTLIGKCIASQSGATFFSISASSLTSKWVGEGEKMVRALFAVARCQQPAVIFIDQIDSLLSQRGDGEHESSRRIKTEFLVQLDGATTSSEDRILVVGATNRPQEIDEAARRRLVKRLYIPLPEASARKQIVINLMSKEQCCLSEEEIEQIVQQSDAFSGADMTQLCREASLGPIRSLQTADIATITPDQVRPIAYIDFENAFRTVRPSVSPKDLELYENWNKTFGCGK

[9] = molecular target: T5, FIGNL1ΔN with an N-terminal YBBR-tag, labelled (human, UniProt Q6PIW4 287-674, labelled as previously described (refs 59, 60)); assay: MST
T5 chain: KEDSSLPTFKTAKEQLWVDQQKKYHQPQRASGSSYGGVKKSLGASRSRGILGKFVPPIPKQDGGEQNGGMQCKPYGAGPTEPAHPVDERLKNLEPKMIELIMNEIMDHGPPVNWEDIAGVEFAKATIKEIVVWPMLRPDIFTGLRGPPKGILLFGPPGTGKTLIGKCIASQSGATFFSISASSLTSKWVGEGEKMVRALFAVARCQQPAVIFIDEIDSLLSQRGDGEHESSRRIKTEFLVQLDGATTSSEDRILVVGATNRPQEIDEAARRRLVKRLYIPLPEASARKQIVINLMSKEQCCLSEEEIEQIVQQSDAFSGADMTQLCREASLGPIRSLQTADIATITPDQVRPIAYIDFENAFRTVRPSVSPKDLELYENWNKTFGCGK

[10] = molecular target: T6, FIGNL1ΔN pore loop 1 mutant (K473E,W474A) (human, UniProt Q6PIW4 287-674, K473E | W474A); assay: MST
T6 sequence: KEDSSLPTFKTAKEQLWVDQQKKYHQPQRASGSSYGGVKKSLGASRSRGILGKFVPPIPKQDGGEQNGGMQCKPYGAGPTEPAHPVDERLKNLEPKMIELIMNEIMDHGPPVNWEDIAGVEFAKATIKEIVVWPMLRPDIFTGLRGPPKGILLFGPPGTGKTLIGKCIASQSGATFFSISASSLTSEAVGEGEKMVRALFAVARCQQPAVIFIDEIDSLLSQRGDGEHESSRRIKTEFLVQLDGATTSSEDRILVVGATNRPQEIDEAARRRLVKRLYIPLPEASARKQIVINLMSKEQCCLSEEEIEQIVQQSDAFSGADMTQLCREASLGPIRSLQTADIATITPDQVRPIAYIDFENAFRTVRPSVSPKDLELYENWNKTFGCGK

[11] = molecular target: T7, FIGNL1ΔN with an N-terminal YBBR-tag, labelled (human, UniProt Q6PIW4 287-674, labelled as previously described (refs 59, 60)); assay: MST; 100nM FIGNL1ΔN labelled at an N-terminal YBBR-tag with a serial dilution of RAD51 and RAD51ΔN; measured as in the labelled RAD51 experiments; conditions: both partners purified
T7 sequence (looked up): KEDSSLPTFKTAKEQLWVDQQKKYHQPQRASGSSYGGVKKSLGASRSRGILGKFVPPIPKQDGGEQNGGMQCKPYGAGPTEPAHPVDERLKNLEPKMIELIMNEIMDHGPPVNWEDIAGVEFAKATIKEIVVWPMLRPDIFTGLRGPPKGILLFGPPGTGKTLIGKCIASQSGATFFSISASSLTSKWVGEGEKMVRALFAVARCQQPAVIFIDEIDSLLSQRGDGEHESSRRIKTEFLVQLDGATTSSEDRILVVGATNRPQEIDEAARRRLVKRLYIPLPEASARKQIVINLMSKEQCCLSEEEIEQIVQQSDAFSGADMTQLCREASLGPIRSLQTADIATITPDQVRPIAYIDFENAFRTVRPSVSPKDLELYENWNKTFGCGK

B1: FIGNL1ΔN (human FIGNL1 residues 287-674) (domain or fragment)
chain: KEDSSLPTFKTAKEQLWVDQQKKYHQPQRASGSSYGGVKKSLGASRSRGILGKFVPPIPKQDGGEQNGGMQCKPYGAGPTEPAHPVDERLKNLEPKMIELIMNEIMDHGPPVNWEDIAGVEFAKATIKEIVVWPMLRPDIFTGLRGPPKGILLFGPPGTGKTLIGKCIASQSGATFFSISASSLTSKWVGEGEKMVRALFAVARCQQPAVIFIDEIDSLLSQRGDGEHESSRRIKTEFLVQLDGATTSSEDRILVVGATNRPQEIDEAARRRLVKRLYIPLPEASARKQIVINLMSKEQCCLSEEEIEQIVQQSDAFSGADMTQLCREASLGPIRSLQTADIATITPDQVRPIAYIDFENAFRTVRPSVSPKDLELYENWNKTFGCGK
- Kd (RAD51 [1]): 328 nM
- stoichiometry N [2]: 6

Binder: B2
- stoichiometry N [3]: 6
- stoichiometry N (RAD51 [4]): 2 RAD51 monomers per FIGNL1 hexamer

Binder: B3
- binding result [5]: binds
- binding result (FIGNL1ΔN(E501Q) [6]): binds
- binding result [7]: binds
- Kd (FIGNL1ΔN(E501Q) [8]): 279 nM
- Kd [9]: 109 nM
- Kd [10]: 340 nM

B4: RAD51ΔN (RAD51 lacking the N-terminal 20 residues) (domain or fragment, human, UniProt Q06609 21-339, looked up)
chain: GPQPISRLEQCGINANDVKKLEEAGFHTVEAVAYAPKKELINIKGISEAKADKILAEAAKLVPMGFTTATEFHQRRSEIIQITTGSKELDKLLQGGIETGSITEMFGEFRTGKTQICHTLAVTCQLPIDRGGGEGKAMYIDTEGTFRPERLLAVAERYGLSGSDVLDNVAYARAFNTDHQTQLLYQASAMMVESRYALLIVDSATALYRTDYSGRGELSARQMHLARFLRMLLRLADEFGVAVVITNQVVAQVDGAAMFAADPKKPIGGNIIAHASTTRLYLRKGRGETRICKIYDSPCLPEAEAMFAINADGVGDAKD
notes: RAD51 lacking the N-terminal 20 residues; also called RAD51 with N-terminal 20 a.a. deleted
- binding result [11]: binds
- Kd [9]: 315 nM
